Results reported in publication PMC6721657.

Molecular target: full length extracellular fragment of FGFR1-IIIc fused to the Fc (UniProt P11362)
Experiment: BLI; FGFR1c-Fc loaded on Protein A biosensors (20 μg/mL, 600 s); FGF1 proteins 100 to 800 nM in solution; PBS, 25 °C, 1000 rpm; global fit with the 2:1 heterogeneous ligand model and steady state analysis; three independent experiments

Sequence of UniProt P11362 (P11362 22-376): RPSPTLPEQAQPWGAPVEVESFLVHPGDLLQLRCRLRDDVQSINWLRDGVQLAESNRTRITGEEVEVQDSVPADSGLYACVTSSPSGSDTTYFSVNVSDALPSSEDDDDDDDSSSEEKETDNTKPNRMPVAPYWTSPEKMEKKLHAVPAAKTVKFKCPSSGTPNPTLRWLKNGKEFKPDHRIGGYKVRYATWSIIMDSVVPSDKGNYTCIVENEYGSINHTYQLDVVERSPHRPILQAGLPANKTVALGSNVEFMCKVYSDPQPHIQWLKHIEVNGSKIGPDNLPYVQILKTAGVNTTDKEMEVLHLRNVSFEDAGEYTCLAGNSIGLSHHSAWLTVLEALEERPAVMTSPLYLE

Row | KD1 (2:1 heterogeneous ligand model) | KD2 (2:1 heterogeneous ligand model) | Substance
1 | 1.02e-07 | 1.05e-07 | FGF1 Q40P/S47I/H93G variant (Ala-FGF1 21-154) (ligand)
2 | 291 nM | 152 nM | FGF1 R35E mutant (Ala-FGF1 21-154) (ligand)
3 | 477 nM | 690 nM | FGF1 R35E/Q40P/S47I/H93G mutant (Ala-FGF1 21-154) (ligand)
4 | 46.9 nM | 75.6 nM | wild-type fibroblast growth factor 1, truncated form (Ala-FGF1 21-154) (ligand)
